Experimental data as given in IntAct's records for PubMed 25910212.

B1: Beta-crystallin A4 (Homo sapiens), P53673 (parent)
chain: MTLQCTKSAGPWKMVVWDEDGFQGRRHEFTAECPSVLELGFETVRSLKVLSGAWVGFEHAGFQGQQYILERGEYPSWDAWGGNTAYPAERLTSFRPAACANHRDSRLTIFEQENFLGKKGELSDDYPSLQAMGWEGNEVGSFHVHSGAWVCSQFPGYRGFQYVLECDHHSGDYKHFREWGSHAPTFQVQSIRRIQQ
partner: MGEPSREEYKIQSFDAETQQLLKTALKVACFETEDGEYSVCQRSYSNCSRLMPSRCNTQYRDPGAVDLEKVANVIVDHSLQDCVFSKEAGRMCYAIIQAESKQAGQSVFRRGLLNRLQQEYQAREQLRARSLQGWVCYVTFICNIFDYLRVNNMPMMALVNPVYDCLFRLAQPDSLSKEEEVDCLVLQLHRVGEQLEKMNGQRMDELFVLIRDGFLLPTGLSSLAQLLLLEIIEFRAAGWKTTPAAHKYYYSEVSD
B2: Nuclear receptor subfamily 0 group B member 1 (Homo sapiens), P51843 (parent)
chain: MAGENHQWQGSILYNMLMSAKQTRAAPEAPETRLVDQCWGCSCGDEPGVGREGLLGGRNVALLYRCCFCGKDHPRQGSILYSMLTSAKQTYAAPKAPEATLGPCWGCSCGSDPGVGRAGLPGGRPVALLYRCCFCGEDHPRQGSILYSLLTSSKQTHVAPAAPEARPGGAWWDRSYFAQRPGGKEALPGGRATALLYRCCFCGEDHPQQGSTLYCVPTSTNQAQAAPEERPRAPWWDTSSGALRPVALKSPQVVCEAASAGLLKTLRFVKYLPCFQVLPLDQQLVLVRNCWASLLMLELAQDRLQFETVEVSEPSMLQKILTTRRRETGGNEPLPVPTLQHHLAPPAEARKVPSASQVQAIKCFLSKCWSLNISTKEYAYLKGTVLFNPDVPGLQCVKYIQGLQWGTQQILSEHTRMTHQGPHDRFIELNSTLFLLRFINANVIAELFFRPIIGTVSMDDMMLEMLCTKI
B3: AMP deaminase 3 (Homo sapiens), Q01432 (parent)
chain: MPRQFPKLNISEVDEQVRLLAEKVFAKVLREEDSKDALSLFTVPEDCPIGQKEAKERELQKELAEQKSVETAKRKKSFKMIRSQSLSLQMPPQQDWKGPPAASPAMSPTTPVVTGATSLPTPAPYAMPEFQRVTISGDYCAGITLEDYEQAAKSLAKALMIREKYARLAYHRFPRITSQYLGHPRADTAPPEEGLPDFHPPPLPQEDPYCLDDAPPNLDYLVHMQGGILFVYDNKKMLEHQEPHSLPYPDLETYTVDMSHILALITDGPTKTYCHRRLNFLESKFSLHEMLNEMSEFKELKSNPHRDFYNVRKVDTHIHAAACMNQKHLLRFIKHTYQTEPDRTVAEKRGRKITLRQVFDGLHMDPYDLTVDSLDVHAGRQTFHRFDKFNSKYNPVGASELRDLYLKTENYLGGEYFARMVKEVARELEESKYQYSEPRLSIYGRSPEEWPNLAYWFIQHKVYSPNMRWIIQVPRIYDIFRSKKLLPNFGKMLENIFLPLFKATINPQDHRELHLFLKYVTGFDSVDDESKHSDHMFSDKSPNPDVWTSEQNPPYSYYLYYMYANIMVLNNLRRERGLSTFLFRPHCGEAGSITHLVSAFLTADNISHGLLLKKSPVLQYLYYLAQIPIAMSPLSNNSLFLEYSKNPLREFLHKGLHVSLSTDDPMQFHYTKEALMEEYAIAAQVWKLSTCDLCEIARNSVLQSGLSHQEKQKFLGQNYYKEGPEGNDIRKTNVAQIRMAFRYETLCNELSFLSDAMKSEEITALTN
B4: Neutrophil cytosol factor 1 (Homo sapiens), P14598 (parent)
chain: MGDTFIRHIALLGFEKRFVPSQHYVYMFLVKWQDLSEKVVYRRFTEIYEFHKTLKEMFPIEAGAINPENRIIPHLPAPKWFDGQRAAENRQGTLTEYCSTLMSLPTKISRCPHLLDFFKVRPDDLKLPTDNQTKKPETYLMPKDGKSTATDITGPIILQTYRAIANYEKTSGSEMALSTGDVVEVVEKSESGWWFCQMKAKRGWIPASFLEPLDSPDETEDPEPNYAGEPYVAIKAYTAVEGDEVSLLEGEAVEVIHKLLDGWWVIRKDDVTGYFPSMYLQKSGQDVSQAQRQIKRGAPPRRSSIRNAHSIHQRSRKRLSQDAYRRNSVRFLQQRRRQARPGPQSPGSPLEEERQTQRSKPQPAVPPRPSADLILNRCSESTKRKLASAV

Variants of: B1
Conditions: with MIF4GD

Variant | effect of a mutation on the interaction
MTLQCTKSAGPWKMVVWDEDGFQGRRHEFTAECPSVLELGFETVRSLKVLSGAWVGFEHAGFQGQQYIPERGEYPSWDAWGGNTAYPAERLTSFRPAACANHRDSRLTIFEQENFLGKKGELSDDYPSLQAMGWEGNEVGSFHVHSGAWVCSQFPGYRGFQYVLECDHHSGDYKHFREWGSHAPTFQVQSIRRIQQ | disrupting interaction strength
MTLQCTKSAGPWKMVVWDEDGFQGRRHEFTAECPSVLELGFETVRSLKVLSGAWVGFEHAGFQGQQYILERGEYPSWDAWGGNTAYPAERLTSSRPAACANHRDSRLTIFEQENFLGKKGELSDDYPSLQAMGWEGNEVGSFHVHSGAWVCSQFPGYRGFQYVLECDHHSGDYKHFREWGSHAPTFQVQSIRRIQQ | disrupting interaction strength

Variants of: B2
Conditions: with stf1_human NR5A1, Q13285
stf1_human NR5A1, Q13285, sequence (Q13285 whole entry): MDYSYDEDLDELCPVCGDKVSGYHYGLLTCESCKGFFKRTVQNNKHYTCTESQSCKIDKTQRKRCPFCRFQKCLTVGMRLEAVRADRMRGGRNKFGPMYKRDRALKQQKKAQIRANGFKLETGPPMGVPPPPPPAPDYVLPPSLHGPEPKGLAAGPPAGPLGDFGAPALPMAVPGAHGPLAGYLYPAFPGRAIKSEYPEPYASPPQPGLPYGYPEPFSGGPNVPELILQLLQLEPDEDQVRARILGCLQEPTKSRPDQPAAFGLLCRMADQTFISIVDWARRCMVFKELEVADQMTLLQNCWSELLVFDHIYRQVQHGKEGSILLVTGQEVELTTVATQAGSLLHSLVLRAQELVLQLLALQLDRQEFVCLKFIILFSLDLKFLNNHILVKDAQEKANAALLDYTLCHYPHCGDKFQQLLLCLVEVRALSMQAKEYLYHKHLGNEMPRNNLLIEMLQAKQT

Variant | effect of a mutation on the interaction
MAGENHQWQGSILYNMLMSAKQTRAAPEAPETRLVDQCWGCSCGDEPGVGREGLLGGRNVALLYRCCFCGKDHPRQGSILYSMLTSAKQTYAAPKAPEATLGPCCGCSCGSDPGVGRAGLPGGRPVALLYRCCFCGEDHPRQGSILYSLLTSSKQTHVAPAAPEARPGGAWWDRSYFAQRPGGKEALPGGRATALLYRCCFCGEDHPQQGSTLYCVPTSTNQAQAAPEERPRAPWWDTSSGALRPVALKSPQVVCEAASAGLLKTLRFVKYLPCFQVLPLDQQLVLVRNCWASLLMLELAQDRLQFETVEVSEPSMLQKILTTRRRETGGNEPLPVPTLQHHLAPPAEARKVPSASQVQAIKCFLSKCWSLNISTKEYAYLKGTVLFNPDVPGLQCVKYIQGLQWGTQQILSEHTRMTHQGPHDRFIELNSTLFLLRFINANVIAELFFRPIIGTVSMDDMMLEMLCTKI [W105C] | with no effect

Variants of: B3
Conditions: with hs90b_human HSP90AB1, P08238
hs90b_human HSP90AB1, P08238, sequence (P08238 whole entry): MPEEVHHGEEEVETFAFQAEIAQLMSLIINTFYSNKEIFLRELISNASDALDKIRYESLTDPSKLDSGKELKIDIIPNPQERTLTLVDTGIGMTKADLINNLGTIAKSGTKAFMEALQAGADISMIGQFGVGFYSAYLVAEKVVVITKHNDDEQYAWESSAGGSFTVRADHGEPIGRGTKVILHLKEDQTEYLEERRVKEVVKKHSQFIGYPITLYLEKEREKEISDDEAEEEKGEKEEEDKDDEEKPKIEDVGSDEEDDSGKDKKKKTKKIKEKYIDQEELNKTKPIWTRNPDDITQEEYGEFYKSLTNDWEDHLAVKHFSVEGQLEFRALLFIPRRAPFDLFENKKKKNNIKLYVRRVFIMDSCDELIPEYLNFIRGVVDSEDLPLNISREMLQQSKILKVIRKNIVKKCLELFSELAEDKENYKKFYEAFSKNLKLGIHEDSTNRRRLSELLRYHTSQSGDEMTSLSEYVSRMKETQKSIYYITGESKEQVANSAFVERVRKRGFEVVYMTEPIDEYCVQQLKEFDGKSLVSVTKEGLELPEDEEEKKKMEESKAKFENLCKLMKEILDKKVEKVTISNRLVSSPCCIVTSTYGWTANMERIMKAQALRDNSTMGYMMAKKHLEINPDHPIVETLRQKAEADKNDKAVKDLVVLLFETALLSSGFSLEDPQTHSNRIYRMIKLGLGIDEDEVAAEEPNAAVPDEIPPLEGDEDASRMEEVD

Variant | effect of a mutation on the interaction
A320V | increasing interaction strength
W450R | increasing interaction strength

Variants of: B4
Conditions: with hsp7c_human HSPA8, P11142
hsp7c_human HSPA8, P11142, sequence (P11142 whole entry, looked up): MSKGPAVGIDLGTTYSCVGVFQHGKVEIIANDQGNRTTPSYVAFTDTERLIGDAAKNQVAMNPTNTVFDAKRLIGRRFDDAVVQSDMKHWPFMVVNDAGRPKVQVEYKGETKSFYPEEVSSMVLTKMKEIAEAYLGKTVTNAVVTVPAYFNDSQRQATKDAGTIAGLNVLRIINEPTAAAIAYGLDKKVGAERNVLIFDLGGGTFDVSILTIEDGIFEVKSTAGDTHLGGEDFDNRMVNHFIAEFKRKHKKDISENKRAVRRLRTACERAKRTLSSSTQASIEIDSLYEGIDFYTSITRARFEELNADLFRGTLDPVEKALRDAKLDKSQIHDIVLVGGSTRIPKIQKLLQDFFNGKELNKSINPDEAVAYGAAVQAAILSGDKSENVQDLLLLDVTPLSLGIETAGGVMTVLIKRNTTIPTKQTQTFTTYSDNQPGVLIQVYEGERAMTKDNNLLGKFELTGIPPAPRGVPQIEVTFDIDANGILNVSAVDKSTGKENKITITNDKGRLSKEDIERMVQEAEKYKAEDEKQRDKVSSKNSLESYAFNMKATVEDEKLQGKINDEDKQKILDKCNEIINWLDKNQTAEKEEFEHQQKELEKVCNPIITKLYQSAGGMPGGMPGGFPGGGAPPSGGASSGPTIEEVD

Variant | effect of a mutation on the interaction
MGDTFIRHIALLGFEKRFVPSQHYVYMFLVKWQDLSEKVVYRRFTEIYEFHKALKEMFPIEAGAINPENRIIPHLPAPKWFDGQRAAENRQGTLTEYCSTLMSLPTKISRCPHLLDFFKVRPDDLKLPTDNQTKKPETYLMPKDGKSTATDITGPIILQTYRAIANYEKTSGSEMALSTGDVVEVVEKSESGWWFCQMKAKRGWIPASFLEPLDSPDETEDPEPNYAGEPYVAIKAYTAVEGDEVSLLEGEAVEVIHKLLDGWWVIRKDDVTGYFPSMYLQKSGQDVSQAQRQIKRGAPPRRSSIRNAHSIHQRSRKRLSQDAYRRNSVRFLQQRRRQARPGPQSPGSPLEEERQTQRSKPQPAVPPRPSADLILNRCSESTKRKLASAV [T53A] | with no effect
